Measured values taken from the supplement of paper PMC10126150.
± gives the standard deviation of the averaged measurements.

System: ATP
Experiment: switch fluorescence ratio, 500 uM ATP over buffer (Cy3 cluster intensity, sum of 5 cycles each) (fold (ratio)); higher = stronger signal-on switching upon ATP binding; sequences stand for … in TCGTCGGCAGCGTCAGATGTGTATAAGAGACAGTTTTTTTTTTTTTTTTTTTTTTTTT…TC
Details: aptamer strand: ATP DNA aptamer (quencher-CACCTGGGGGAGTATTGCGGAGGAAGG + anchor), 100 nM annealed; ATP concentration: 500 uM
How it was run: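 Values give the fluorescence ratio for each switch-domain sequence, averaged from per-cluster ratios of summed target-cycle to summed buffer-cycle Cy3 intensity. The Cy3-labelled switching-strand clusters sat on a modified Illumina MiSeq flow-cell, were annealed to 100 nM quencher-labelled ATP aptamer, and were imaged in selection buffer, then after 15 min with 500 uM ATP at 22 °C. Five cycles ran with NaOH stripping and re-annealing between them, and clusters outside 100-1000 RFU were excluded.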
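Further: ATP exposure 15 min at 22 °C before imaging.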

Compared with TAGGTTTGGT, TGGGCTTAGT is lower in switch fluorescence ratio: 1.018 ± 0.0063 for the first, 0.992 ± 0.012 for the second.

TTAGTTAAT and CTAGCGGGGG are within error of each other in switch fluorescence ratio: 1.02 ± 0.023 for the first, 0.993 ± 0.034 for the second.

ATCTGATAGC and AAGAGGAGCG are within error of each other in switch fluorescence ratio: 0.955 ± 0.047 for the first, 0.9668 ± 0.0078 for the second.

AATCCTAGTT and CGTCATTAAA are within error of each other in switch fluorescence ratio: 1.01 ± 0.011 for the first, 0.984 ± 0.023 for the second.

AAAACGCGCT and GGTAGGGATG are within error of each other in switch fluorescence ratio: 0.965 ± 0.079 for the first, 0.962 ± 0.024 for the second.

TTAGTTATTG and TTTAGCTCTG are within error of each other in switch fluorescence ratio: 1 ± 0.087 for the first, 1.02 ± 0.019 for the second.

CGAGGTTTTC and ACTGGGCCGG are within error of each other in switch fluorescence ratio: 0.9817 ± 0.0056 for the first, 1.04 ± 0.065 for the second.

Going from AACTATCTTT to GGGTAAAGCT, the switch fluorescence ratio rises from 1.04 ± 0.033 to 1.14 ± 0.018.

GCACTGAAGG and GGGGGGGCGA are within error of each other in switch fluorescence ratio: 1.0196 ± 0.00041 for the first, 0.987 ± 0.041 for the second.

TTGGGAAGCG and GCTATAGGGG are within error of each other in switch fluorescence ratio: 1.001 ± 0.0093 for the first, 1.02 ± 0.02 for the second.

First: ACATGTTAGT
Second: TTACAAGATT
The switch fluorescence ratio of the first is lower: 1.006 ± 0.0028 for the first, 1.03 ± 0.0047 for the second.

First: TGGGGGTGG
Second: CGTAATCATC
The switch fluorescence ratio of the first is lower: 0.957 ± 0.046 for the first, 1.13 ± 0.023 for the second.

ACATTTGCAG and ACGGGTTGTT are the same in switch fluorescence ratio: 1.02 ± 0.033 for the first, 1.02 ± 0.021 for the second.

Compared with ATTTGGTCGT, CCCCAGGCAT is higher in switch fluorescence ratio: 0.979 ± 0.048 for the first, 2.68 ± 0.5 for the second.

GTACTTGGTC and TCCTGGAGCG are within error of each other in switch fluorescence ratio: 1.03 ± 0.048 for the first, 1.08 ± 0.068 for the second.

TCGGCTTAGC and GGTTTGGCGT are the same in switch fluorescence ratio: 0.981 ± 0.012 for the first, 0.981 ± 0.017 for the second.

TCGTTCGGCT and TGCATTTTCG are within error of each other in switch fluorescence ratio: 1.01 ± 0.044 for the first, 1.03 ± 0.049 for the second.

GCGATTTATG and GGTCCAACTG are within error of each other in switch fluorescence ratio: 0.9723 ± 0.0051 for the first, 0.987 ± 0.036 for the second.

GAAGGCGGAT and GATGTCAGGC are within error of each other in switch fluorescence ratio: 1.01 ± 0.018 for the first, 0.996 ± 0.01 for the second.

AGAGCGGTTG and TAGTGGGGCA are within error of each other in switch fluorescence ratio: 0.969 ± 0.037 for the first, 0.966 ± 0.033 for the second.

ACGGGGGCGT and AGGCCTGGG are within error of each other in switch fluorescence ratio: 1.05 ± 0.068 for the first, 1 ± 0.016 for the second.

TTTCTTTCTT and AGAGAGGTCA are within error of each other in switch fluorescence ratio: 1.05 ± 0.083 for the first, 0.997 ± 0.042 for the second.

CAAAACAGGT and GGTTGAAAGT are within error of each other in switch fluorescence ratio: 1.01 ± 0.032 for the first, 1.48 ± 0.69 for the second.

TTTGGCCGGA and CAAATAGATG are within error of each other in switch fluorescence ratio: 0.985 ± 0.036 for the first, 1 ± 0.029 for the second.

Compared with GCCTCCCGGG, GGGTATACCG is lower in switch fluorescence ratio: 1.136 ± 0.0053 for the first, 1.018 ± 0.0017 for the second.

AGAGAGTAGA and TATTTGGCTA are within error of each other in switch fluorescence ratio: 1.02 ± 0.021 for the first, 0.983 ± 0.045 for the second.

AGCCAGGATT and CGGTTGCTTA are within error of each other in switch fluorescence ratio: 0.9722 ± 0.0083 for the first, 0.987 ± 0.012 for the second.

First: CTGGTAAGGA
Second: TTACTAGTTT
The switch fluorescence ratio of the first is higher: 1.017 ± 0.0031 for the first, 0.981 ± 0.02 for the second.

Compared with CTCACAGGGG, TGCTGGCCAC is lower in switch fluorescence ratio: 3.62 ± 0.1 for the first, 1.01 ± 0.013 for the second.

TTCACATTTT and GGGTTGTAGT are within error of each other in switch fluorescence ratio: 0.9961 ± 0.0026 for the first, 1.02 ± 0.032 for the second.

TTTACGGTGA and CGTTTGTATC are the same in switch fluorescence ratio: 1.02 ± 0.043 for the first, 1.02 ± 0.022 for the second.

Compared with TTATTTCATT, GCGAATAGTT is higher in switch fluorescence ratio: 0.9966 ± 0.0062 for the first, 1.005 ± 0.0067 for the second.

Going from GGCAGCAAGT to GCTCTAGATG, the switch fluorescence ratio falls from 1.16 ± 0.013 to 1.04 ± 0.0076.

GTTCAAGGAA and AAATATGAGC are within error of each other in switch fluorescence ratio: 0.9937 ± 0.0036 for the first, 0.993 ± 0.033 for the second.

First: TCGTTCATGG
Second: TTTTTTCCGG
The switch fluorescence ratio of the first is lower: 0.979 ± 0.039 for the first, 1.21 ± 0.17 for the second.

AGGCTTGCGC and ATTTTTGGCC are within error of each other in switch fluorescence ratio: 1.01 ± 0.037 for the first, 1.02 ± 0.035 for the second.

GCGATGGTCG and ATGAAAGACC are within error of each other in switch fluorescence ratio: 0.937 ± 0.14 for the first, 1.0427 ± 0.00025 for the second.

Going from CCATTTGCGC to ATTATAAGTG, the switch fluorescence ratio falls from 1.02 ± 0.034 to 0.96 ± 0.016.

CGGTAGGGGG and AACAAGGGGG are within error of each other in switch fluorescence ratio: 1.02 ± 0.049 for the first, 1.01 ± 0.013 for the second.

AGTTTTTTTT and TATAAATGGC are within error of each other in switch fluorescence ratio: 0.997 ± 0.028 for the first, 1.01 ± 0.029 for the second.

TCGGGGGGCT and GGAGTTAAGC are within error of each other in switch fluorescence ratio: 1.06 ± 0.048 for the first, 1.03 ± 0.061 for the second.

Going from AACCGTAGTC to ATTGTGACGA, the switch fluorescence ratio falls from 1.15 ± 0.049 to 1.03 ± 0.027.

TGGAGTTTGG and ACACCCGGCC are within error of each other in switch fluorescence ratio: 1.15 ± 0.19 for the first, 1.28 ± 0.068 for the second.

First: AAAAGCTACT
Second: AAATTCGGGG
The switch fluorescence ratio of the first is higher: 1.06 ± 0.053 for the first, 0.959 ± 0.037 for the second.

First: GTAGTTTTGT
Second: CGTGGAGCGA
The switch fluorescence ratio of the first is lower: 0.987 ± 0.032 for the first, 1.04 ± 0.02 for the second.

GTAATTATGT and CGTGAGCTAG are within error of each other in switch fluorescence ratio: 1.02 ± 0.016 for the first, 1.03 ± 0.029 for the second.

TTAGGTGAGT and ATGGTACCGT are within error of each other in switch fluorescence ratio: 1.21 ± 0.3 for the first, 1.02 ± 0.014 for the second.

AGTAAGTATG and ATGATTACGT are within error of each other in switch fluorescence ratio: 1.04 ± 0.054 for the first, 1.01 ± 0.03 for the second.

GTTATTTTTT and CTCGGGGGTT are within error of each other in switch fluorescence ratio: 0.987 ± 0.028 for the first, 1.06 ± 0.08 for the second.

Going from GGGGGAACGT to TGAGTTATGC, the switch fluorescence ratio falls from 1.05 ± 0.037 to 0.953 ± 0.015.
